Experimental data: patent US20180155407A1 (Sanofi, published 2018)
Numbered stars: 1 amine (or outer) side, 2 acyl side, 3 side chain; on linkers, the order of the positions; unused ones are H or OH. Square brackets hold non-standard residues; d marks the D form. Side chains are listed from the residue outwards. Ends that are not written are not given here. * marks the point of attachment. γGlu = O=C(O)[C@H](CCC(=O)[*:2])N[*:1]; Stearoyl = CCCCCCCCCCCCCCCCCC(=O)*; Palmitoyl = CCCCCCCCCCCCCCCC(=O)*; AEEA = NCCOCCOCC(=O)O; Aib = CC(C)(N)C(=O)O

B1: SEQ ID NO: 17 (peptide)
peptide: H[Aib]QGTFTSDLSKLK([γGlu-γGlu-AEEA-Palmitoyl])EKQRQ[Aib]EFIEWLKA[dA]GHPS[Aib]KPPPK-NH2
modifications: N-terminus assumed
SMILES: CCCCCCCCCCCCCCCC(=O)NCCOCCOCC(=O)N[C@@H](CCC(=O)N[C@@H](CCC(=O)NCCCC[C@H](NC(=O)[C@H](CC(C)C)NC(=O)[C@H](CCCCN)NC(=O)[C@H](CO)NC(=O)[C@H](CC(C)C)NC(=O)[C@H](CC(=O)O)NC(=O)[C@H](CO)NC(=O)[C@@H](NC(=O)[C@H](Cc1ccccc1)NC(=O)[C@@H](NC(=O)CNC(=O)[C@H](CCC(N)=O)NC(=O)C(C)(C)NC(=O)[C@@H](N)Cc1c[nH]cn1)[C@@H](C)O)[C@@H](C)O)C(=O)N[C@@H](CCC(=O)O)C(=O)N[C@@H](CCCCN)C(=O)N[C@@H](CCC(N)=O)C(=O)N[C@@H](CCCNC(=N)N)C(=O)N[C@@H](CCC(N)=O)C(=O)NC(C)(C)C(=O)N[C@@H](CCC(=O)O)C(=O)N[C@@H](Cc1ccccc1)C(=O)N[C@H](C(=O)N[C@@H](CCC(=O)O)C(=O)N[C@@H](Cc1c[nH]c2ccccc12)C(=O)N[C@@H](CC(C)C)C(=O)N[C@@H](CCCCN)C(=O)N[C@@H](C)C(=O)N[C@H](C)C(=O)NCC(=O)N[C@@H](Cc1c[nH]cn1)C(=O)N1CCC[C@H]1C(=O)N[C@@H](CO)C(=O)NC(C)(C)C(=O)N[C@@H](CCCCN)C(=O)N1CCC[C@H]1C(=O)N1CCC[C@H]1C(=O)N1CCC[C@H]1C(=O)N[C@@H](CCCCN)C(N)=O)[C@@H](C)CC)C(=O)O)C(=O)O
B2: SEQ ID NO: 14 (peptide)
peptide: H[Aib]QGTFTSDLSKLK([γGlu-Palmitoyl])EKQRQ[Aib]EFIEWLKAGGPPS[Aib]KPPPK-NH2
modifications: N-terminus assumed
SMILES: CCCCCCCCCCCCCCCC(=O)N[C@@H](CCC(=O)NCCCC[C@H](NC(=O)[C@H](CC(C)C)NC(=O)[C@H](CCCCN)NC(=O)[C@H](CO)NC(=O)[C@H](CC(C)C)NC(=O)[C@H](CC(=O)O)NC(=O)[C@H](CO)NC(=O)[C@@H](NC(=O)[C@H](Cc1ccccc1)NC(=O)[C@@H](NC(=O)CNC(=O)[C@H](CCC(N)=O)NC(=O)C(C)(C)NC(=O)[C@@H](N)Cc1c[nH]cn1)[C@@H](C)O)[C@@H](C)O)C(=O)N[C@@H](CCC(=O)O)C(=O)N[C@@H](CCCCN)C(=O)N[C@@H](CCC(N)=O)C(=O)N[C@@H](CCCNC(=N)N)C(=O)N[C@@H](CCC(N)=O)C(=O)NC(C)(C)C(=O)N[C@@H](CCC(=O)O)C(=O)N[C@@H](Cc1ccccc1)C(=O)N[C@H](C(=O)N[C@@H](CCC(=O)O)C(=O)N[C@@H](Cc1c[nH]c2ccccc12)C(=O)N[C@@H](CC(C)C)C(=O)N[C@@H](CCCCN)C(=O)N[C@@H](C)C(=O)NCC(=O)NCC(=O)N1CCC[C@H]1C(=O)N1CCC[C@H]1C(=O)N[C@@H](CO)C(=O)NC(C)(C)C(=O)N[C@@H](CCCCN)C(=O)N1CCC[C@H]1C(=O)N1CCC[C@H]1C(=O)N1CCC[C@H]1C(=O)N[C@@H](CCCCN)C(N)=O)[C@@H](C)CC)C(=O)O
B3: SEQ ID NO: 6 (peptide)
peptide: H[Aib]QGTFTSDLSKLK([γGlu-γGlu-Palmitoyl])EKQRQ[Aib]EFIEWLKAGGPPS[Aib]KPPPK-NH2
modifications: N-terminus assumed
SMILES: CCCCCCCCCCCCCCCC(=O)N[C@@H](CCC(=O)N[C@@H](CCC(=O)NCCCC[C@H](NC(=O)[C@H](CC(C)C)NC(=O)[C@H](CCCCN)NC(=O)[C@H](CO)NC(=O)[C@H](CC(C)C)NC(=O)[C@H](CC(=O)O)NC(=O)[C@H](CO)NC(=O)[C@@H](NC(=O)[C@H](Cc1ccccc1)NC(=O)[C@@H](NC(=O)CNC(=O)[C@H](CCC(N)=O)NC(=O)C(C)(C)NC(=O)[C@@H](N)Cc1c[nH]cn1)[C@@H](C)O)[C@@H](C)O)C(=O)N[C@@H](CCC(=O)O)C(=O)N[C@@H](CCCCN)C(=O)N[C@@H](CCC(N)=O)C(=O)N[C@@H](CCCNC(=N)N)C(=O)N[C@@H](CCC(N)=O)C(=O)NC(C)(C)C(=O)N[C@@H](CCC(=O)O)C(=O)N[C@@H](Cc1ccccc1)C(=O)N[C@H](C(=O)N[C@@H](CCC(=O)O)C(=O)N[C@@H](Cc1c[nH]c2ccccc12)C(=O)N[C@@H](CC(C)C)C(=O)N[C@@H](CCCCN)C(=O)N[C@@H](C)C(=O)NCC(=O)NCC(=O)N1CCC[C@H]1C(=O)N1CCC[C@H]1C(=O)N[C@@H](CO)C(=O)NC(C)(C)C(=O)N[C@@H](CCCCN)C(=O)N1CCC[C@H]1C(=O)N1CCC[C@H]1C(=O)N1CCC[C@H]1C(=O)N[C@@H](CCCCN)C(N)=O)[C@@H](C)CC)C(=O)O)C(=O)O
B4: SEQ ID NO: 16 (peptide)
peptide: H[Aib]QGTFTSDLSKLK([γGlu-γGlu-AEEA-Palmitoyl])EKQRQ[Aib]EFIEWLKAGGHPS[Aib]KPPPK-NH2
modifications: N-terminus assumed
SMILES: CCCCCCCCCCCCCCCC(=O)NCCOCCOCC(=O)N[C@@H](CCC(=O)N[C@@H](CCC(=O)NCCCC[C@H](NC(=O)[C@H](CC(C)C)NC(=O)[C@H](CCCCN)NC(=O)[C@H](CO)NC(=O)[C@H](CC(C)C)NC(=O)[C@H](CC(=O)O)NC(=O)[C@H](CO)NC(=O)[C@@H](NC(=O)[C@H](Cc1ccccc1)NC(=O)[C@@H](NC(=O)CNC(=O)[C@H](CCC(N)=O)NC(=O)C(C)(C)NC(=O)[C@@H](N)Cc1c[nH]cn1)[C@@H](C)O)[C@@H](C)O)C(=O)N[C@@H](CCC(=O)O)C(=O)N[C@@H](CCCCN)C(=O)N[C@@H](CCC(N)=O)C(=O)N[C@@H](CCCNC(=N)N)C(=O)N[C@@H](CCC(N)=O)C(=O)NC(C)(C)C(=O)N[C@@H](CCC(=O)O)C(=O)N[C@@H](Cc1ccccc1)C(=O)N[C@H](C(=O)N[C@@H](CCC(=O)O)C(=O)N[C@@H](Cc1c[nH]c2ccccc12)C(=O)N[C@@H](CC(C)C)C(=O)N[C@@H](CCCCN)C(=O)N[C@@H](C)C(=O)NCC(=O)NCC(=O)N[C@@H](Cc1c[nH]cn1)C(=O)N1CCC[C@H]1C(=O)N[C@@H](CO)C(=O)NC(C)(C)C(=O)N[C@@H](CCCCN)C(=O)N1CCC[C@H]1C(=O)N1CCC[C@H]1C(=O)N1CCC[C@H]1C(=O)N[C@@H](CCCCN)C(N)=O)[C@@H](C)CC)C(=O)O)C(=O)O
B5: SEQ ID NO: 15 (peptide)
peptide: H[Aib]QGTFTSDLSKLK([γGlu-Stearoyl])EKQRQ[Aib]EFIEWLKAGGPPS[Aib]KPPPK-NH2
modifications: N-terminus assumed
SMILES: CCCCCCCCCCCCCCCCCC(=O)N[C@@H](CCC(=O)NCCCC[C@H](NC(=O)[C@H](CC(C)C)NC(=O)[C@H](CCCCN)NC(=O)[C@H](CO)NC(=O)[C@H](CC(C)C)NC(=O)[C@H](CC(=O)O)NC(=O)[C@H](CO)NC(=O)[C@@H](NC(=O)[C@H](Cc1ccccc1)NC(=O)[C@@H](NC(=O)CNC(=O)[C@H](CCC(N)=O)NC(=O)C(C)(C)NC(=O)[C@@H](N)Cc1c[nH]cn1)[C@@H](C)O)[C@@H](C)O)C(=O)N[C@@H](CCC(=O)O)C(=O)N[C@@H](CCCCN)C(=O)N[C@@H](CCC(N)=O)C(=O)N[C@@H](CCCNC(=N)N)C(=O)N[C@@H](CCC(N)=O)C(=O)NC(C)(C)C(=O)N[C@@H](CCC(=O)O)C(=O)N[C@@H](Cc1ccccc1)C(=O)N[C@H](C(=O)N[C@@H](CCC(=O)O)C(=O)N[C@@H](Cc1c[nH]c2ccccc12)C(=O)N[C@@H](CC(C)C)C(=O)N[C@@H](CCCCN)C(=O)N[C@@H](C)C(=O)NCC(=O)NCC(=O)N1CCC[C@H]1C(=O)N1CCC[C@H]1C(=O)N[C@@H](CO)C(=O)NC(C)(C)C(=O)N[C@@H](CCCCN)C(=O)N1CCC[C@H]1C(=O)N1CCC[C@H]1C(=O)N1CCC[C@H]1C(=O)N[C@@H](CCCCN)C(N)=O)[C@@H](C)CC)C(=O)O
B6: SEQ ID NO: 18 (peptide)
peptide: H[Aib]QGTFTSDLSKLK([γGlu-γGlu-AEEA-Palmitoyl])EEQRQ[Aib]EFIEWLKAGGHPS[Aib]KPPPK-NH2
modifications: N-terminus assumed
SMILES: CCCCCCCCCCCCCCCC(=O)NCCOCCOCC(=O)N[C@@H](CCC(=O)N[C@@H](CCC(=O)NCCCC[C@H](NC(=O)[C@H](CC(C)C)NC(=O)[C@H](CCCCN)NC(=O)[C@H](CO)NC(=O)[C@H](CC(C)C)NC(=O)[C@H](CC(=O)O)NC(=O)[C@H](CO)NC(=O)[C@@H](NC(=O)[C@H](Cc1ccccc1)NC(=O)[C@@H](NC(=O)CNC(=O)[C@H](CCC(N)=O)NC(=O)C(C)(C)NC(=O)[C@@H](N)Cc1c[nH]cn1)[C@@H](C)O)[C@@H](C)O)C(=O)N[C@@H](CCC(=O)O)C(=O)N[C@@H](CCC(=O)O)C(=O)N[C@@H](CCC(N)=O)C(=O)N[C@@H](CCCNC(=N)N)C(=O)N[C@@H](CCC(N)=O)C(=O)NC(C)(C)C(=O)N[C@@H](CCC(=O)O)C(=O)N[C@@H](Cc1ccccc1)C(=O)N[C@H](C(=O)N[C@@H](CCC(=O)O)C(=O)N[C@@H](Cc1c[nH]c2ccccc12)C(=O)N[C@@H](CC(C)C)C(=O)N[C@@H](CCCCN)C(=O)N[C@@H](C)C(=O)NCC(=O)NCC(=O)N[C@@H](Cc1c[nH]cn1)C(=O)N1CCC[C@H]1C(=O)N[C@@H](CO)C(=O)NC(C)(C)C(=O)N[C@@H](CCCCN)C(=O)N1CCC[C@H]1C(=O)N1CCC[C@H]1C(=O)N1CCC[C@H]1C(=O)N[C@@H](CCCCN)C(N)=O)[C@@H](C)CC)C(=O)O)C(=O)O

biological target: human glucagon receptor (human, UniProt P47871 26-477); experiment: cell-based or functional assay
Sequence (P47871 26-477): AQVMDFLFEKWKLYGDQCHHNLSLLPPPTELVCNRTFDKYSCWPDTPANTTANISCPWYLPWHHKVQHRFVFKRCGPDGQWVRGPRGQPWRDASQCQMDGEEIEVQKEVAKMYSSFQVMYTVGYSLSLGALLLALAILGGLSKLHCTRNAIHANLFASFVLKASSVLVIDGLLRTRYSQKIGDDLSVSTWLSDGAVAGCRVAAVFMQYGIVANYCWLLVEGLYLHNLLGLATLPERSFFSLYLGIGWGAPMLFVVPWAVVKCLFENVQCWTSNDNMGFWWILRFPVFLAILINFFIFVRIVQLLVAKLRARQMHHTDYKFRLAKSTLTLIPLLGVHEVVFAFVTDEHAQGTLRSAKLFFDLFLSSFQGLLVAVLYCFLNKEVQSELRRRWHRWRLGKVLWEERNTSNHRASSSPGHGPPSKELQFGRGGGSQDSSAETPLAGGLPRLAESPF

Binder	EC50 hGlucagon R (cAMP formation) [pM]
B1	22
B2	31.6
B3	16.4
B4	18.6
B5	15.6
B6	46.6

biological target: human GLP-1 receptor (human, UniProt P43220 24-463); experiment: cell-based or functional assay

Binder	EC50 hGLP-1R (cAMP formation) [pM]
B1	1.8
B2	5.7
B3	2.8
B4	1.3
B5	5.7
B6	1.7

biological target: T1, human GIP receptor (human, UniProt P48546 22-466); experiment: cell-based or functional assay
T1 sequence (looked up): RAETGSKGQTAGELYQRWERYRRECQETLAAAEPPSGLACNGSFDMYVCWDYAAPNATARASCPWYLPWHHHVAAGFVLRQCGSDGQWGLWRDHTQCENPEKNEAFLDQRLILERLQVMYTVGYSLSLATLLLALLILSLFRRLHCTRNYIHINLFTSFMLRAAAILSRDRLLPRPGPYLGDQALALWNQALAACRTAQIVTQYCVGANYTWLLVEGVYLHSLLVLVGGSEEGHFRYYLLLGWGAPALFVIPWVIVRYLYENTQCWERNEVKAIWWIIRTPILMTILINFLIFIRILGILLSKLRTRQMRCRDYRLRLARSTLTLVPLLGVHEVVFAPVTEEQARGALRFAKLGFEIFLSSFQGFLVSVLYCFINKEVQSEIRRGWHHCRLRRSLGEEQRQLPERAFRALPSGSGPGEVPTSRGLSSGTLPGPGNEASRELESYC

Binder	EC50 hGIP R (cAMP formation) [pM]
B1	11.4
B2	18.2
B3	7.9
B4	7.5
B5	26.1
B6	5.6
